Experiments:
RB = biological target: T1, RB (Homo sapiens, UniProt P06400); test: In vitro binding assay with GST-RB; details: S35-labeled in vitro translated protein
T1 construct: coding region of RB cDNA was subcloned into pGEX-6P (Amersham/Pharmacia) for generation of GST-RB; made in house
T1 sequence (P06400 1-928): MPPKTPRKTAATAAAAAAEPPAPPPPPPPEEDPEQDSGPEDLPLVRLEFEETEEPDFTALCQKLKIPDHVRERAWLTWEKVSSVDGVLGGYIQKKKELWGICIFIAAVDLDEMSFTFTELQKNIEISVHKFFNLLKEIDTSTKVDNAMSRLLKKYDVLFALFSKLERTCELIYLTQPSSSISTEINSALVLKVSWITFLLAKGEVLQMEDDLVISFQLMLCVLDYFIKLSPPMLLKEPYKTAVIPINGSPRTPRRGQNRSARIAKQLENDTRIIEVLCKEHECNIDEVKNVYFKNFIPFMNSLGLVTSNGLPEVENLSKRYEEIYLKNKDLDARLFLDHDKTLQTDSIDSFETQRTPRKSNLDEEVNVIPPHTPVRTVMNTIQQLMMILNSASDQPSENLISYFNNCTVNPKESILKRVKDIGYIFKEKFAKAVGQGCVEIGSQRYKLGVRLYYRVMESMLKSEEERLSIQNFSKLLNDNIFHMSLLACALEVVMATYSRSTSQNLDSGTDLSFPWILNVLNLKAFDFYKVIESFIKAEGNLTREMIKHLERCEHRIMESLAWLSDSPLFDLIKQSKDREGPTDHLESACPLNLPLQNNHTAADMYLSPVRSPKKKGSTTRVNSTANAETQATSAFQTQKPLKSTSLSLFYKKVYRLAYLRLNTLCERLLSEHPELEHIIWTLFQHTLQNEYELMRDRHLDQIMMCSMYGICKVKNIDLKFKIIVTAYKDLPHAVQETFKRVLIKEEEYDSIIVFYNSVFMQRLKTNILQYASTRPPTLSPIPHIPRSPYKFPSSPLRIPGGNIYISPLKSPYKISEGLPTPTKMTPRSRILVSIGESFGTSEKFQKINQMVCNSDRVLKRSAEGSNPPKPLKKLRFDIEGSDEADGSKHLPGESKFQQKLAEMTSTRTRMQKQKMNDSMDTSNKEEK
Method: The crude cell lysate of the GST-fusion proteins was prepared and purified according to the manufacture's protocol (Amersham/Pharmacia). [^35S]-methionine-labeled protein was produced by in vitro transcription/translation using the TNT T7-coupled reticulocyte lysate system (Promega). [^35S]-methionine-labeled protein and GST-fusion protein bound to glutathione sepharose 4B beads were incubated in 500 μl of HNE buffer (50 mM Hepes, pH 7.8, 150 mM NaCl, 1 mM EDTA, 1 mM DTT, 1% NP40, and 1× protease inhibitor mix (Complete: Roche)) at 4° C. for 1 hour. Beads were washed four times with HNE buffer, and then analyzed on an SDS-PAGE gradient gel (4-15%). For the detection of endogenous PRMT-2 interaction with RB, MEFs were lysed with WCL buffer (50 mM Hepes, pH 7.8, 400 mM NaCl, 2 mM EDTA, 1 mM DTT, 0.2% NP40, 10% Glycerol, 20 mM α-glycerophosphate, 5 mM NaF, 0.1 mM NaVO4, and 1× protease inhibitor mix). Then, 1 mg of whole cell extracts were incubated with HNE buffer without DTT and 3 μg of antibodies as indicated. The immune complexes were isolated using protein G beads, and washed four times with HNE buffer. The precipitated protein was boiled with SDS-loading buffer and resolved on SDS-PAGE. For immunoprecipitation of HA-tagged protein, transfected cells were lysed with RIPA buffer (phosphate buffer saline containing 1% NP40, 0.5% sodium deoxycholate, 0.1% SDS, and 1× Complete), and 100 μg of whole cell lysates were immunoprecipitated with anti-HA antibodies and washed in RIPA buffer. Western blot analysis was performed as described in Tanner et al. (1998). Circ Res, 82, 396-403.
To test whether PRMT family members interact with RB, S^35-labeled in vitro translated PRMT1, PRMT2, PRMT3, and PRMT4 (CARM1) were incubated with GST-RB fusion proteins or control GST, and co-precipitated labeled proteins were resolved by SDS-PAGE. […] An equal amount of GST-RB and GST were loaded in each lane, verified by Coomassie staining (FIG. 8B).

NF-κB = test: κB luciferase reporter in MEFs; type: cell-based, mouse; details: PRMT2−/− MEFs complemented by transfection
Method: Cell culture, transfection, and reporter gene assays. The E1A-transformed, human kidney cell line, 293, and NIH-3T3 cells were maintained in Dulbecco's Modified Eagle Medium (DMEM) supplemented with 10% fetal calf serum and penicillin-streptomycin at 37° C. in 5% carbon dioxide in tissue culture grade Petri dishes. PRMT-2−/− mouse embryo fibroblasts (MEFs) and wild type MEFs were prepared from day 13.5 embryos and maintained in DMEM supplemented with 10% fetal calf serum. MEFs at passage 4 were used in this experiment. Lipofectamine Plus™ reagent (Boehringer Mannheim) was used to transfect both 293 and NIH-3T3 cells according to directions from the manufacturer. […] TNF-α stimulation of cells was done using recombinant TNF-α (200 U/ml) for 12 hours. Transfected cells were harvested at 36 hours, and CAT activity was assayed on 10 to 100 μg of protein from whole cell extracts. CAT assays were performed essentially as described in Leung, K. & Nabel, G. J. Nature 333, 776-778 (1988). […] Luciferase activity was analyzed by Dual-Luciferase Reporter Assay System (Promega).
To determine whether similar effects would be observed in non-transformed cell lines with physiological levels of protein, NF-κB inducibility was analyzed in mouse embryonic fibroblasts (MEFs) derived from PRMT2 null mice (T. Y. et al., manuscript in preparation). […]

B1: PRMT2: human PRMT-2 polypeptide, SEQ ID NO:2, expressed from pVR1012 vector with HA-tag (protein, listed as Homo sapiens)
chain: MATSGDCPRSESQGEEPAECSEAGLLQEGVQPEEFVAIADYAATDETQLSFLRGEKILILRQTTADWWWGERAGCCGYIPANHVGKHVDEYDPEDTWQDEEYFGSYGTLKLHLEMLADQPRTTKYHSVILQNKESLTDKVILDVGCGTGIISLFCAHYARPRAVYAVEASEMAQHTGQLVLQNGFADIITVYQQKVEDVVLPEKVDVLVSEWMGTCLLFEFMIESILYARDAWLKEDGVIWPTMAALHLVPCSADKDYRSKVLFWDNAYEFNLSALKSLAVKEFFSKPKYNHILKPEDCLSEPCTILQLDMRTVQISDLETLRGELRFDIRKAGTLHGFTAWFSVHFQSLQEGQPPQVLSTGPFHPTTHWKQTLFMMDDPVPVHTGDVVTGSVVLQRNPVWRRHMSVALSWAVTSRQDPTSQKVGEKVFPIWR
modifications: HA tag
For B1, the “binding to RB” value (RB) was “directly interacts with RB” and the “NF-κB induction by TNF-α” value (NF-κB) was “completely abolished NF-κB induction by TNF-α”.

— patent US20060239990A1, “Protein Arginine N-Methyltransferase 2 (PRMT-2)” (priority 2003, published 2006)
